Test results published in the supplement of paper PMC9170038.

Test system: MS2 coat protein
Assay: apparent KD of MS2 coat protein; designed switch direction (-1 OFF switch, 1 ON switch): -1; higher = weaker reporter binding
In short: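 The buffer was Tris-HCl pH 7.5 with KCl, MgCl2, BSA, DTT, tRNA and Tween-20. In it, SNAP-549-labelled MS2 coat protein was titrated in doubling steps from 0.7 or 1.5 nM to 3 µM over chip-bound RNA switches transcribed by stalled E. coli RNA polymerase on Illumina chips. Apparent KD is the per-design median over clusters of curve fits to normalised fluorescence.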

[1] = Eterna round: R95, input ligand: FMN 200 uM
[2] = Eterna round: R95, input ligand: microRNA oligo, concentration not stated
[3] = Eterna round: R95, input ligand: none
[4] = input ligand: microRNA oligo, concentration not stated

AGUUGGCGAGGAUAUACAUGAGGAUCACCCAUGUGUGAGAUAUAAGUGAGGUAAAUAUGUAGAAGGCGCUGACA [JR_Ex3_Sub079] (Eterna round: R97, puzzle: Exclusion 3)
apparent KD of MS2 coat protein (input ligand: FMN 200 uM): 0.0184 µM | apparent KD of MS2 coat protein (input ligand: none): 0.425 µM

AGUUGUUGUUUCCGUUCUUACAUGAGGAUCACCCAUGUUUCUUGUCGUGCUCGCGUUGCUCGUCUGGCUACCUGUUG [salish99_TOv1_r3_068] (puzzle: Sensor v3, turn-off variant 1)
apparent KD of MS2 coat protein [1]: 0.0339 µM | apparent KD of MS2 coat protein [2]: 0.034 µM | apparent KD of MS2 coat protein [3]: 0.0438 µM

AGUUUACAUGAGGAUCACCCAUGUGAGGAUAUGGAUUCGCUGGCCGUAGCCAGUGGAUCCAGAAGGCGCGUGAU [JL-ex1-4.29] (Eterna round: R97, puzzle: Exclusion 1)
apparent KD of MS2 coat protein (input ligand: FMN 200 uM): 0.186 µM | apparent KD of MS2 coat protein (input ligand: none): 0.101 µM

AUAAAGCAAGCAUGGUCCCACAUGAGGAUCACCCAUGUGUUCGUCUUAUAGGCUGCUGUGGCUUUUGCCUCGUUGGC [LRO Sensor-off var1-09 loose mod of D91 from Mat747] (Eterna round: R97, puzzle: Sensor, turn-off variant 1)
apparent KD of MS2 coat protein (input ligand: FMN 200 uM): 0.0416 µM | apparent KD of MS2 coat protein (input ligand: none): 0.046 µM

AUAAAUCAUGUAGGAUAUGCGUGGCGAAGCUAUGCAGAAGGACAUGAGGAUCACCCAUGUUCUUCCGUCUGCGUACAGACGGAA [Mat - Exclusion NG 1 - Mod of JL - D39] (Eterna round: R96, puzzle: Exclusion NG 1)
apparent KD of MS2 coat protein (input ligand: FMN 200 uM): 0.297 µM | apparent KD of MS2 coat protein [4]: 0.0285 µM | apparent KD of MS2 coat protein (input ligand: none): 0.0349 µM

AUAACAAGCUUUUUUUUCGUAGUACAUGACGCUCGAGUCACAUGAGGAUCACCCAUGUCUUCCUGUUUGAUUGUUGA [JR_SV3TOV2_Sub058] (puzzle: Sensor v3, turn-off variant 2)
apparent KD of MS2 coat protein [1]: 0.0458 µM | apparent KD of MS2 coat protein [2]: 0.0547 µM | apparent KD of MS2 coat protein [3]: 0.0546 µM

AUAACCGAAGGAUAUAGUCGUGAGGACAUGAGGAUCACCCAUGUGUUUCAGAUAGUCCCACUAGAAGGUCGGCGUC [Eternabot (L2) Solution 29] (Eterna round: R97, puzzle: Exclusion 5)
apparent KD of MS2 coat protein (input ligand: FMN 200 uM): 0.11 µM | apparent KD of MS2 coat protein (input ligand: none): 0.0672 µM

AUAAGCUUUUAUAUCCUUAACAUGAGGAUCACCCAUGUUCGUCUUAUGAUGGUCUGAUCCCUGAGGAUCGGACCGUU [JL-sv1-2.04 Brourd Mod] (puzzle: Sensor v3, turn-off variant 1)
apparent KD of MS2 coat protein [1]: 0.031 µM | apparent KD of MS2 coat protein [2]: 0.0765 µM | apparent KD of MS2 coat protein [3]: 0.0299 µM

AUAAGGUCAGGAUAUGCUUGGCGGAUUCUGGUGUCCAAAUGACAUGAGGAUCACCCAUGUAGAAGGGACAUCAG [Leonlexe] (Eterna round: R97, puzzle: Exclusion 2)
apparent KD of MS2 coat protein (input ligand: FMN 200 uM): 0.0124 µM | apparent KD of MS2 coat protein (input ligand: none): 0.0141 µM

AUAAUAAAGGAGGAUAUCGUAUCGGAAACGAUACGAGAAGGUCUAACAUGAGGAUCACCCAUGUUCCUCAAAUA [Mat - Exclusion 6 - Eli Mod - D49] (puzzle: Exclusion 6)
apparent KD of MS2 coat protein [2]: 0.0409 µM

AUAAUACAUGAGGAUCACCCAUGUGAGGAUAUGAGCCUACAUUCACGCAGAGAGAAGGUCAGAAGGCACUUGGU [Eternabot (L2) Solution 65] (Eterna round: R97, puzzle: Exclusion 1)
apparent KD of MS2 coat protein (input ligand: FMN 200 uM): 0.211 µM | apparent KD of MS2 coat protein (input ligand: none): 0.0633 µM

AUAAUACAUGUAGGAUAUCUGCACGAUUAGUGCAGAGAAGGACAUGAGGAUCACCCAUGUAAUUAAGAUCAAUUAUUAAAUUAU [ENG1/3-D1] (Eterna round: R96, puzzle: Exclusion NG 1)
apparent KD of MS2 coat protein (input ligand: FMN 200 uM): 0.238 µM | apparent KD of MS2 coat protein [4]: 0.0639 µM | apparent KD of MS2 coat protein (input ligand: none): 0.057 µM

AUAAUACAUGUAGGAUAUCUGCACGUGUAGUGCAGAGAAGGACAUGAGGAUCACCCAUGUAAUUAAGAUCAAUUAUUAAAUUAU [ENG1/3-D3] (Eterna round: R96, puzzle: Exclusion NG 1)
apparent KD of MS2 coat protein (input ligand: FMN 200 uM): 0.228 µM | apparent KD of MS2 coat protein [4]: 0.0536 µM | apparent KD of MS2 coat protein (input ligand: none): 0.0756 µM

AUAAUGUAAGGAUAUCAGUCGUACAGCUUCGGCUGUACGACUGAGAAGGUACAUGAGGAUCACCCAUGUGAUCA [E4/8-A1] (Eterna round: R97, puzzle: Exclusion 4)
apparent KD of MS2 coat protein (input ligand: FMN 200 uM): 0.185 µM | apparent KD of MS2 coat protein (input ligand: none): 1.68 µM

AUAAUGUGAGGAUAUCAGUAGUAUUGCCUCGGCAAUACUACUGAGAAGGCACAUGAGGAUCACCCAUGUGAUCA [E4/2-B2] (Eterna round: R97, puzzle: Exclusion 4)
apparent KD of MS2 coat protein (input ligand: FMN 200 uM): 0.0293 µM | apparent KD of MS2 coat protein (input ligand: none): 0.772 µM

AUAAUGUGAGGAUAUCAGUCGACUAGCUUCGGCUAGUCGACUGAGAAGGCACAUGAGGAUCACCCAUGUAGAUC [E4/17-A1] (Eterna round: R97, puzzle: Exclusion 4)
apparent KD of MS2 coat protein (input ligand: FMN 200 uM): 0.059 µM | apparent KD of MS2 coat protein (input ligand: none): 0.925 µM

AUAAUUAAUCGAGGAUAUCAGCACGUUUAGUGCUGAGAAGGCGACAUGAGGAUCACCCAUGUGAUCAAUUAAUAUUAAUAUUAU [ENG1/11-C2] (Eterna round: R96, puzzle: Exclusion NG 1)
apparent KD of MS2 coat protein (input ligand: FMN 200 uM): 0.898 µM | apparent KD of MS2 coat protein [4]: 0.23 µM | apparent KD of MS2 coat protein (input ligand: none): 0.369 µM

AUACCACGAGGAUAUCGUCUAUUUCACAUGAGGAUCACCCAUGUUAUCUUUGUUUUGUUUCGAGAAGGCGUGUUUU [JR_E5_Sub078] (puzzle: Exclusion 5)
apparent KD of MS2 coat protein [2]: 0.0281 µM

AUAUACGGAGGAUAUACUUGAGGAUCACCCAAGUGGAGUCCCGUUUGGGCGGUAAAUAGUAGAAGGCCGACCCA [jl-ex3-4.43 ViennaUCT mod] (Eterna round: R97, puzzle: Exclusion 3)
apparent KD of MS2 coat protein (input ligand: FMN 200 uM): 0.0141 µM | apparent KD of MS2 coat protein (input ligand: none): 0.0165 µM

AUAUAGAUAGUCAGGAUAUGCUAGUGAUAACAGUAGUAGAAGGGACAUGAGGAUCACCCAUGUAGAUACUGCAC [Brourd's EX4 #3] (Eterna round: R97, puzzle: Brourd's mod of Exclusion 4)
apparent KD of MS2 coat protein (input ligand: FMN 200 uM): 0.0196 µM | apparent KD of MS2 coat protein (input ligand: none): 0.0193 µM

AUAUAGCGAGGAUAUACAUGAGGAUCACCCAUGUGGUAGUAGAUACAGUAGAGAUAGAGUAGAAGGCGCUAUGA [EX3 #7] (Eterna round: R97, puzzle: Exclusion 3)
apparent KD of MS2 coat protein (input ligand: FMN 200 uM): 0.416 µM | apparent KD of MS2 coat protein (input ligand: none): 0.0792 µM

AUAUUAAUAGUAAGGAUAUGCGUAUAUGUAGUUAUGCAGAAGGUACAUGAGGAUCACCCAUGUAUUAAUGUGUA [LRO-BmodExc4-04-Oppy's Opus] (Eterna round: R97, puzzle: Brourd's mod of Exclusion 4)
apparent KD of MS2 coat protein (input ligand: FMN 200 uM): 0.016 µM | apparent KD of MS2 coat protein (input ligand: none): 0.016 µM

AUAUUGUGAGGAUAUGAACUUAGUUUCGAAAGAUACUAAGUUCAGAAGGCACAUGAGGAUCACCCAUGUUUCUC [Long static hairpin v21] (Eterna round: R97, puzzle: Exclusion 4)
apparent KD of MS2 coat protein (input ligand: FMN 200 uM): 0.597 µM | apparent KD of MS2 coat protein (input ligand: none): 0.0798 µM

AUAUUGUGAGGAUAUGUACUUAGUAUCGAAAGAUACUAAGUUCAGAAGGCACAUGAGGAUCACCCAUGUUUCUC [Long static hairpin v13] (Eterna round: R97, puzzle: Exclusion 4)
apparent KD of MS2 coat protein (input ligand: FMN 200 uM): 0.805 µM | apparent KD of MS2 coat protein (input ligand: none): 0.0635 µM

AUCACGGAUGUAAGGAUAUACAAAACCAUAAGGUAGUAGAAGGUACAUGAGGAUCACCCAUGUGCAUAUGUUUA [BmEX4 C.14] (Eterna round: R97, puzzle: Brourd's mod of Exclusion 4)
apparent KD of MS2 coat protein (input ligand: FMN 200 uM): 0.0185 µM | apparent KD of MS2 coat protein (input ligand: none): 0.0162 µM

AUCAGCUCGUCAGGAUAUACAUGCGUGCUUCGGCACGUAUGAUAGAUCACAUGAGGAUCACCCAUGUAGAAGGGACGAGCUGAU [ENG2/4-B3] (Eterna round: R96, puzzle: Exclusion NG 2)
apparent KD of MS2 coat protein (input ligand: FMN 200 uM): 0.0153 µM | apparent KD of MS2 coat protein [4]: 0.00919 µM | apparent KD of MS2 coat protein (input ligand: none): 0.0127 µM

AUCAUGUAAGGAUAUCUGACAUGUGACGAAAGUCACUGUUCAGAGAAGGUACAUGAGGAUCACCCAUGUAGAAC [Ex4-3: 43] (puzzle: Exclusion 4)
apparent KD of MS2 coat protein [2]: 0.0628 µM

AUCCAACAUGAGGAUCACCCAUGUGAGGAUAUGCCCAAAACUCUUCGAUCCGAAGAGCGCAGAAGGCACAUGAA [EX1 A.18] (Eterna round: R97, puzzle: Exclusion 1)
apparent KD of MS2 coat protein (input ligand: FMN 200 uM): 0.0334 µM | apparent KD of MS2 coat protein (input ligand: none): 0.0132 µM

AUCGGACAUGAGGAUCACCCAUGUCAGGAUAUCUGGAACCAUUGGCAGAUGAGGGAAAAGAGAAGGGACAGUGG [EX1 C.3] (Eterna round: R97, puzzle: Exclusion 1)
apparent KD of MS2 coat protein (input ligand: FMN 200 uM): 0.0202 µM | apparent KD of MS2 coat protein (input ligand: none): 0.0185 µM

AUCGUGGCUCAGGAUAUCAGCCCUGUGGAGUUCUGAGAAGGGAGCACAUGAGGAUCACCCAUGUGAAAGGGUAC [Esdienar] (puzzle: Exclusion 6)
apparent KD of MS2 coat protein [1]: 0.148 µM | apparent KD of MS2 coat protein [2]: 0.0456 µM | apparent KD of MS2 coat protein [3]: 0.0408 µM

AUCGUGUGAGGAUAUCGAUGUUGGACGUCUAGGUCUGUGCGCGAGAAGGCACAUGAGGAUCACCCAUGUAAUGG [jl-ex4-4.26 ViennaUCT mod] (Eterna round: R97, puzzle: Exclusion 4)
apparent KD of MS2 coat protein (input ligand: FMN 200 uM): 0.137 µM | apparent KD of MS2 coat protein (input ligand: none): 0.347 µM
